Kd and IC50 data for 2 molecules are collected here from patent publication US20180021430A1 (UNIVERSITAETSKLINIKUM FREIBURG, published 2018).

In assay [1] the target is T1, recombinant Mac-1 I-domain, human Mac-1 (alpha M) amino residues R115 to S340, soluble His-tag fusion protein (human, UniProt P11215 131-356).
T1 construct: range 115-340; ~28 kDa; also called alphaM I-domain; not shown: C-terminal His-tag from vector pET20b
In words: solid phase binding assay, one-site binding hyperbola; I-domain on immobilized CD40L, BSA wells subtracted. On the procedure:
(§1) Solid phase binding assay. […] A mixture of equal molarities of all peptides served as the positive control in this assay.
(§2) The recombinant Mac-1 I-domain was immobilized in 96-well plates (Nunc) in PBS at 4° C. overnight. […] Binding was quantified by addition of TMB-substrate (Pierce), colorimetric reaction at 450 nm. […] Binding of the recombinant Mac-1 I-domain was quantified by addition of anti-His-Biotin monoclonal antibody (Qiagen), HRP-coupled streptavidin (Pierce) and colorimetric reaction at 450 nm. […] Kd was estimated using a one-site binding hyperbola nonlinear regression model with the Software Prism (Graphpad). […] A mixture of equal molarities of all peptides served as positive control. Absorbance on BSA-coated wells served as negative control and was subtracted.

In assay [2] the target is T2, recombinant CD40L, TNF homologous region of human CD40L (E108 to L261), produced as c-myc- and His-tag fusion … (human).
T2 construct: also called sCD40L; His-tag-CD40L fusion protein
T2 chain: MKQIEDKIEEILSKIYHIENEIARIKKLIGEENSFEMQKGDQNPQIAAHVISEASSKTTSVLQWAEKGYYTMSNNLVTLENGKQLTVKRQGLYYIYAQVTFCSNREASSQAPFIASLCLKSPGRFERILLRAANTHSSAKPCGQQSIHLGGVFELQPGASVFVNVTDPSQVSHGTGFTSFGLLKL
As to the kind of experiment: solid phase competition assay: M7 against binding of CD40L to the immobilized I-domain. On the procedure:
as §1, §2

T1 sequence (P11215 131-356): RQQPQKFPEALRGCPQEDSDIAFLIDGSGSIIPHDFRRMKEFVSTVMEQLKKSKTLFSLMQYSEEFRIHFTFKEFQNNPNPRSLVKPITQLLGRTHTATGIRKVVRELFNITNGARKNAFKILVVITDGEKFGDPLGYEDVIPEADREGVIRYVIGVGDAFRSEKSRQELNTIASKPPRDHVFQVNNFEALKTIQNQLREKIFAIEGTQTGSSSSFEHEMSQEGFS

B1: CD40L without a His-tag (Provitro) (ligand)
chain: MQKGDQNPQIAAHVISEASSKTTSVLQWAEKGYYTMSNNLVTLENGKQLTVKRQGLYYIYAQVTFCSNREASSQAPFIASLCLKSPGRFERILLRAANTHSSAKPCGQQSIHLGGVFELQPGASVFVNVTDPSQVSHGTGFTSFGLLKL
notes: Bought protein; also called CD40L (Provitro); immobilized CD40L
Turning to B1, the Kd (usually the constant that tells how readily two partners part at equilibrium) in assay [1] is around 66 nM.

B2: peptide M7 (EQLKKSKTL) (peptide)
peptide: EQLKKSKTL
notes: linear fragment of the Mac-1 I-domain, E162-L170
In the case of B2, the IC50 (usually the concentration needed to halve the response being measured) in assay [2] was around 4000 nM.
